Reference: the supplement of paper PMC9732359
± gives the uncertainty stated by the source.

Assay: protein stability index of a GFP-peptide fusion (yeast GPS) (PSI 1-4); higher = more stable; sorted into four equal gates, so the index is relative within each strain
How it was run: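 Mid-log yeast cultures in leucine-free medium, carrying a pooled plasmid library, were sorted into four equal gates by their GFP/Cherry fluorescence ratio. Each plasmid expressed Cherry along with GFP fused upstream of a tiled 17-residue yeast protein peptide. Plasmids recovered from each gate were PCR-amplified and Illumina-sequenced, with reads assigned to strains by barcodes. The protein stability index was obtained by summing each gate's read frequency weighted by its gate number.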

| Sequence | protein stability index (pdr5∆) | protein stability index (san1∆) | protein stability index (ubr1∆) | protein stability index (doa10∆) |
| --- | --- | --- | --- | --- |
| FASLRVLPDADVKLLHS [YJL039C/NUP192] | 2.11 ± 0.1 | 1.54 ± 0.2 | 2.14 ± 0.11 |  |
| SYVETLDSMIELFKDYK [MED1] | 3.22 ± 0.1 | 3.34 ± 0.052 | 3.19 ± 0.054 | 3.24 ± 0.085 |
| FHGTSTKANDKNESATI [FAS2] | 2.8 ± 0.094 | 2.95 ± 0.075 | 2.91 ± 0.1 | 3.06 ± 0.12 |
| SNTMYSVRLFSFLDPLN [YJL039C/NUP192] | 1.48 ± 0.061 | 1.83 ± 0.063 | 1.69 ± 0.059 | 1.41 ± 0.048 |
| VLSPDSNIMSDSKKIKV [GAL11] | 2.42 ± 0.095 | 2.44 ± 0.12 | 2.21 ± 0.12 | 2.03 ± 0.13 |
| MTTFRFCRDCNNMLYPR [RPB9] | 3.14 ± 0.11 | 3.41 ± 0.14 | 2.99 ± 0.068 | 2.78 ± 0.14 |
| LVQLEPHLFVNGDLTVS [SSN2] | 1.9 ± 0.069 | 1.53 ± 0.16 | 1.5 ± 0.16 | 1.77 ± 0.1 |
| SGTPTLKKNIEPKKDKE [YOR098C/NUP1] | 3.29 ± 0.11 | 2.71 ± 0.25 | 3.05 ± 0.084 | 3.39 ± 0.19 |
| RRTNTPIGRDGKLAKPR [RPB2] | 3.06 ± 0.078 | 2.76 ± 0.084 | 2.96 ± 0.1 | 3.08 ± 0.1 |
| TGESEESSSEDDYEDQD [IRR1] | 3.34 ± 0.16 |  | 3.57 ± 0.26 | 3.5 ± 0.17 |
| VVIDAKDHLLGRLASTI [RPL16B] | 1.25 ± 0.07 | 1.17 ± 0.12 | 1.35 ± 0.078 | 1.33 ± 0.066 |
| DSFIFDGTAKEVGDEAD [MED4] | 3.31 ± 0.057 | 3.38 ± 0.05 | 3.11 ± 0.051 | 3.22 ± 0.062 |
| IHLQRFDEGTTLLSPKD [RPO21] | 2.57 ± 0.14 | 2.91 ± 0.16 | 2.98 ± 0.2 | 2.94 ± 0.14 |
| GSLKLPNCPRPNMSICI [RPL1A] | 2.67 ± 0.05 | 2.95 ± 0.065 | 2.98 ± 0.05 | 2.62 ± 0.082 |
| LLPANLLSLNSVRSLQK [SRP68] | 2.48 ± 0.063 | 2.49 ± 0.057 | 2.81 ± 0.046 | 2.71 ± 0.059 |
| EKQHENAVLELGTVQRE [SMC3] | 3.54 ± 0.26 |  |  |  |
| NPKYDTSNASMNTTLGS [YAR002W/NUP60] | 3.15 ± 0.044 | 3.12 ± 0.034 | 3.14 ± 0.047 | 3.12 ± 0.045 |
| FEQDSHLRYQPDGVVVH [SNF6] | 3.1 ± 0.078 | 3.07 ± 0.046 | 3.09 ± 0.061 | 3.09 ± 0.087 |
| TDVLEISKQRTFAVILF [YMR129W/POM152] | 2.52 ± 0.054 | 2.41 ± 0.058 | 2.21 ± 0.041 | 1.93 ± 0.056 |
| TNKDNKAELIKPIQNGE [ARP9] | 3.14 ± 0.083 | 3.4 ± 0.046 | 3.16 ± 0.072 | 3.34 ± 0.071 |
| VQDLGSAISVTNVEDPL [SIR2] | 1.97 ± 0.064 | 2.47 ± 0.13 | 2.21 ± 0.054 | 2.34 ± 0.069 |
| STKKIQVATKYASLKLP [YMR129W/POM152] | 1.93 ± 0.036 | 1.55 ± 0.069 | 1.92 ± 0.038 | 1.78 ± 0.047 |
| TQTVSGTPPMLHQRTHK [DSN1] | 3.11 ± 0.097 | 2.89 ± 0.16 | 2.98 ± 0.088 | 2.97 ± 0.12 |
| RNRDIALFQPPNFDWDL [ROX3] | 3.33 ± 0.12 | 3.17 ± 0.11 | 2.98 ± 0.11 | 3.12 ± 0.096 |
| DAVEGVSECIILGQTMS [RPO31] | 1.46 ± 0.077 | 1.45 ± 0.12 | 1.56 ± 0.13 | 1.7 ± 0.21 |
| KTPEEVEVYAKIFWERL [ISW2] | 2.91 ± 0.17 | 3.03 ± 0.17 | 3.29 ± 0.085 | 1.74 ± 0.081 |
| SYVAVLGMGKAVEKTLA [POP7] | 2.17 ± 0.081 | 1.82 ± 0.11 | 1.61 ± 0.086 | 1.75 ± 0.13 |

| Sequence | protein stability index (pdr5∆) | protein stability index (san1∆) | protein stability index (ubr1∆) | protein stability index (doa10∆) |
| --- | --- | --- | --- | --- |
| MFNPLHESYCLPMDTNL [YMR129W/POM152] | 2.83 ± 0.055 | 2.75 ± 0.058 | 2.36 ± 0.056 | 2.39 ± 0.059 |
| NGFAPISEVMEDRNQRI [FAS1] | 3.3 ± 0.06 | 3.42 ± 0.05 | 3.31 ± 0.038 | 3.44 ± 0.093 |
| KSICFENCLNNDPEILK [SWI1] | 2.69 ± 0.056 | 2.83 ± 0.068 | 2.7 ± 0.074 | 2.2 ± 0.087 |
| LYKIFSYALSMEKDKLK [SNU114] | 1.33 ± 0.052 | 1.63 ± 0.17 | 1.65 ± 0.049 | 1.84 ± 0.097 |
| AQFQYTLDRNTAAETFK [RPL8A] | 2.08 ± 0.082 | 2.64 ± 0.27 | 2.06 ± 0.049 | 2.15 ± 0.082 |
| VNQDKANNASQITPTVP [SNF12] | 3.19 ± 0.081 | 3.11 ± 0.063 | 3.18 ± 0.054 | 3.03 ± 0.083 |
| SQLKKSKAQQKTAEQVA [RPL7A] | 2.79 ± 0.087 | 2.58 ± 0.1 | 2.94 ± 0.052 | 2.7 ± 0.071 |
| ILDITDEELVSHFVSAV [RPP0] | 2.88 ± 0.14 | 3.01 ± 0.13 | 3.05 ± 0.071 | 2.99 ± 0.12 |
| IASAGKDGEIMLWNLAA [ASC1] | 1.66 ± 0.053 | 3.03 ± 0.054 | 3.09 ± 0.076 | 2.92 ± 0.077 |
| VQSGQIYINKSVPTNSA [RET1] | 3.32 ± 0.082 | 3.35 ± 0.091 | 3.33 ± 0.086 | 3.29 ± 0.14 |
| ITHQLNNKFANKIIPNV [RPC25] | 3.03 ± 0.08 | 2.93 ± 0.053 | 3.01 ± 0.082 | 2.72 ± 0.069 |
| VDSWDREFLKVDQEMLY [SKP1] | 3.29 ± 0.078 | 3.21 ± 0.1 | 3.26 ± 0.086 | 3.43 ± 0.12 |
| IILLGVLEDCRHLPMYT [ITC1] | 1.59 ± 0.054 | 2.44 ± 0.099 | 2.47 ± 0.067 | 1.37 ± 0.064 |
| PLKRAIWLIKCCYFIEW [SRB8] | 2.12 ± 0.074 | 2.85 ± 0.097 | 2.77 ± 0.071 | 2.56 ± 0.1 |
| LISGAGANPRVLSTFTA [RPN10] | 2.04 ± 0.1 | 2.02 ± 0.2 | 2.17 ± 0.072 | 2.16 ± 0.11 |
| ITSFDQDVDDAHAIDQM [POP8] | 1.23 ± 0.061 | 1.15 ± 0.093 | 1.08 ± 0.11 | 1.55 ± 0.064 |
| VLRIPEEYLDANVFRLE [MTW1] | 3.44 ± 0.097 | 3.19 ± 0.072 | 3.23 ± 0.053 | 3.34 ± 0.1 |
| GIDPDETVPDNVKTSVS [RPO31] |  |  |  | 2.83 ± 0.22 |
| NLRLLNSIDSTSRIELE [ECM29] | 3.08 ± 0.077 | 2.92 ± 0.064 | 2.98 ± 0.057 | 2.91 ± 0.094 |
| GSESDDSEGSIKQTSDE [ECM29] | 3.57 ± 0.083 | 3.32 ± 0.068 | 3.42 ± 0.062 | 3.32 ± 0.1 |
| ATAEKLPNIYPSTRCKL [RPT2] | 1.66 ± 0.091 | 2.04 ± 0.1 | 2 ± 0.1 | 2.14 ± 0.096 |
| MVDESDKKQQTIDEQSQ [RPN1] | 3.25 ± 0.16 | 3.38 ± 0.11 | 3.43 ± 0.12 | 3.17 ± 0.16 |
| VAALKAVGAHSDLLKVL [RPL4A] | 3.16 ± 0.11 | 2.71 ± 0.1 | 2.83 ± 0.059 | 3.21 ± 0.093 |
| VLPDADVKLLHSQFMKD [YJL039C/NUP192] | 2.21 ± 0.12 |  | 2.27 ± 0.25 |  |
| ENEVENINATNTSVLMK [YCS4] | 3.02 ± 0.12 | 3.09 ± 0.091 | 3.36 ± 0.087 | 3.3 ± 0.16 |
| RRRLLGPAAAKPMAFSN [MTR3] | 3.17 ± 0.055 | 3.23 ± 0.057 | 3.21 ± 0.038 | 3.06 ± 0.071 |
